The source of these data is US20150203825A1, “Laccase of Podospora Anserina and Uses of Same” (priority 2012, published 2015).

Substrate in series [1]: CCn1c(=NN=c2sc3cc(S(=O)(=O)O)ccc3n2CC)sc2cc(S(=O)(=O)O)ccc21
The experiment in a line: purified protein, by the assay type. The conditions noted are these: other: ABTS 0 to 1.5 mM, 0.1 M citrate/phosphate buffer, pH 3.4, 37° C.

Substrate in series [2]: COc1cc(/C=N/N=C/c2cc(OC)c(O)c(OC)c2)cc(OC)c1O
Kind of series: Enzymatic test, oxidation of syringaldazine (SGZ) (stationary-phase kinetics). Type of series: biochemical, Podospora anserina. The conditions noted are these: other: SGZ 0 to 50 μM (diluted in methanol), citrate-phosphate 50 mM buffer, pH 7, 37° C., 530 nm. The method, then: The enzymatic tests are carried out using a Varian spectrophotometer in a 0.1 M citrate/phosphate buffer at 37° C. in a volume of 3 ml by monitoring the oxidation of various substrates at a given wavelength as a function of time. The specific activity of the enzyme is expressed in μmol of substrates oxidized per minute and per mg of protein.
The experiments are carried out at 37° C. on a Varian spectrophotometer in a citrate-phosphate 50 mM buffer, pH 7. The concentration of SGZ, diluted in methanol, varies in the test from 0 to 50 μM. The test, initiated by the addition of enzyme, consists in monitoring the oxidation of the SGZ at 530 nm by colorimetric change (ε530nm=64 mM^−1 cm^−1).

A short description of series [3]: Enzymatic activity (SGZ oxidation) in the presence of NaCl. The class given is biochemical. The following applies: 150 mM of NaCl, SGZ oxidation at 530 nm, 37° C., 50 mM phosphate-citrate buffer, pH 7. The method, then:
In order to verify the influence of sodium chloride (present in a physiological medium) on the activity of the laccase, increasing concentrations of NaCl were added to the activity test consisting in monitoring the oxidation, at 530 nm, of the SGZ at 37° C. in a 50 mM phosphate-citrate buffer, pH 7.

Series [4] can be described thus: Electrochemical measurements, enzymatic electrode with redox polymer, reduction of O2. The conditions noted are these: pH 7, in the presence of Cl. An excerpt:
At pH 7 and in the presence of Cl, the catalytic current for the reduction of O2 is 40% greater for the electrode modified with the novel enzyme. In addition, the stability over time is 200% greater.

B1: Podospora anserina laccase, SEQ ID No. 3 (Podospora anserina S mat+) (protein)
chain: SVARKDWESPTYSWLYQFPLPIPPVKTPKLTVTNLVTGNPIHYYEVYINRFTQQVYPNKGPATLVGYDGISPGPTFIVERGHEAVVRFVNNASIENSVHLHGSYSRAPWDGWAEDVTMPGEFKDYYYPNQQAARFLWYHDHAFMHTAENAYFGQAGAYIIHDPAEDALNLPSGYGVHDIPLVLSSKQYNNNGSLFTTNGETDSLFGDVIHVNGQPWPYFNVEPRKYRLRFLDAAVSRTFKLYFQRQTGSSAKIPFQVIATDAGLMASPATTNDLYISMGERYEVVFDFSPFAGQNITLRNTDDVGQDDDYLHTNKVMRFIVGNTPVTDTSSIPSTLATVDWPTSDGTGVDRHFKFDRSNGEWQINGVVFADVNNRVLANVPRGKVEIWELENGGGGWSHPIHIHLVDFKVLWRSNDDGRPVYNYEAQGLKDVVWLAPNEIVRVEAHYAPWDGVYMFHCHNLIHEDHDMMAAFNVTALTDLGYNETAFRDPMEARWRAEPVTAAKFTTAAITEKIQFMAGLQPYNNVEEVLEVLDEYWATHSKRDAQDPAPKTRRMRIEGGKVKEVR
notes: purified
As usually defined, the Km is the concentration of substrate that gives half-maximal velocity. A word on the kcat: it is the maximal rate divided by the concentration of active sites. With B1, in series [1], the Km stood at 307 µM and the kcat turned out to be 1372 s⁻¹. Moreover, in series [2], the Michaelis-Menten constant (Km) was found to be 10.9 µM and the kcat stood at 1.3 s⁻¹.

B2: laccase of SEQ ID No. 3: Podospora anserina laccase of SEQ ID No. 1 with an additional N-terminal serine, expressed in Pichia pastoris from the pFD56 vector (protein, listed as Podospora anserina)
chain: SVARKDWESPTYSWLYQFPLPIPPVKTPKLTVTNLVTGNPIHYYEVYINRFTQQVYPNKGPATLVGYDGISPGPTFIVERGHEAVVRFVNNASIENSVHLHGSYSRAPWDGWAEDVTMPGEFKDYYYPNQQAARFLWYHDHAFMHTAENAYFGQAGAYIIHDPAEDALNLPSGYGVHDIPLVLSSKQYNNNGSLFTTNGETDSLFGDVIHVNGQPWPYFNVEPRKYRLRFLDAAVSRTFKLYFQRQTGSSAKIPFQVIATDAGLMASPATTNDLYISMGERYEVVFDFSPFAGQNITLRNTDDVGQDDDYLHTNKVMRFIVGNTPVTDTSSIPSTLATVDWPTSDGTGVDRHFKFDRSNGEWQINGVVFADVNNRVLANVPRGKVEIWELENGGGGWSHPIHIHLVDFKVLWRSNDDGRPVYNYEAQGLKDVVWLAPNEIVRVEAHYAPWDGVYMFHCHNLIHEDHDMMAAFNVTALTDLGYNETAFRDPMEARWRAEPVTAAKFTTAAITEKIQFMAGLQPYNNVEEVLEVLDEYWATHSKRDAQDPAPKTRRMRIEGGKVKEVR
With B2, the “oxidation activity still exhibited in the presence of NaCl” value in series [3] came out at 70%. Moreover, in series [4], the “catalytic current for the reduction of O2, greater than electrode with laccase of Trametes versicolor” value came out at 40% and the “stability over time, greater than electrode with laccase of Trametes versicolor” value came to 200%.
